In US20220251215A1:
Each block holds one binder with its values, some of them ahead of it.

Experiments:
[1] = target: HLA.A2 with NY-ESO-1: 157-165 on IM9 cells; assay: cell-based or functional assay
[2] = target: HLA.A2/hB2M/NY-ESO-1: 157-165 WT on 3T3 cells (human) (UniProt P04439); assay: cell-based or functional assay

Max Fold (RLU), NFAT-luciferase [1]: 1 fold
EC50 (#of APC cells), NFAT-luciferase [2]: 24500 APC cells
Max Fold (RLU), NFAT-luciferase [2]: 6.7 fold
B3: NY-ESO CAR-T 24958N VH-VL (protein, part only; not given: scFv linker, hinge, signalling domains, not shown: large carriers)
chain, part: QVQLQESGPGLVKPSQTLSLTCTVSGGSIISDGYYWSWIRQHPGKGLEWIGYVDYSGNTYYNPSLKSRIIMSVDTSKNQFSLKLTSVTAADTAVYFCVREGPLRDAFEIWGQGTMVTVSSDIQMTQSPSSLSASVGDRVTITCRTSQSISRYLNWYQQKPGKAPKLLIFAASSLQSGVPSRFSGSGSGADFTLTISSLQPEDFATYYCQQSYSTPPITFGQGTRLEIK

Max Fold (RLU), NFAT-luciferase [1]: 1.1 fold
EC50 (#of APC cells), NFAT-luciferase [2]: 14200 APC cells
Max Fold (RLU), NFAT-luciferase [2]: 13.3 fold
B4: NY-ESO CAR-T 24959N VH-VL (protein, part only; not given: scFv linker, hinge, signalling domains, not shown: large carriers)
chain, part: QLQLLESGPGLVKPSETLSLICTVSGGSIRGSSYYWGWIRQPPEKGLEWIGSIYSSGSTYYNPSLKSRVTISADTSKNQFSLKLSSVTAADTAVYYCARHGGITAVQLEFDPWGQGTLVTVSSDIQMTQSPSSLSASVGDRVTITCQASQDISNYLKWYQQKPGKAPKILIHDASNLEIGVPSRFSGSGAGTDFIFTISSLQPEDIGTYYCQQYDNLPITFGQGTRLEIK

Second part, the binder before the results:

B1: NY-ESO CAR-T 24958N VL-VH (protein, part only; not given: scFv linker, hinge, signalling domains, not shown: large carriers)
chain, part: DIQMTQSPSSLSASVGDRVTITCRTSQSISRYLNWYQQKPGKAPKLLIFAASSLQSGVPSRFSGSGSGADFTLTISSLQPEDFATYYCQQSYSTPPITFGQGTRLEIKQVQLQESGPGLVKPSQTLSLTCTVSGGSIISDGYYWSWIRQHPGKGLEWIGYVDYSGNTYYNPSLKSRIIMSVDTSKNQFSLKLTSVTAADTAVYFCVREGPLRDAFEIWGQGTMVTVSS
Max Fold (RLU), NFAT-luciferase [1]: 0.9 fold
EC50 (#of APC cells), NFAT-luciferase [2]: 19900 APC cells
Max Fold (RLU), NFAT-luciferase [2]: 6.4 fold

B2: NY-ESO CAR-T 24959N VL-VH (protein, part only; not given: scFv linker, hinge, signalling domains, not shown: large carriers)
chain, part: DIQMTQSPSSLSASVGDRVTITCQASQDISNYLKWYQQKPGKAPKILIHDASNLEIGVPSRFSGSGAGTDFIFTISSLQPEDIGTYYCQQYDNLPITFGQGTRLEIKQLQLLESGPGLVKPSETLSLICTVSGGSIRGSSYYWGWIRQPPEKGLEWIGSIYSSGSTYYNPSLKSRVTISADTSKNQFSLKLSSVTAADTAVYYCARHGGITAVQLEFDPWGQGTLVTVSS
Max Fold (RLU), NFAT-luciferase [1]: 0.8 fold
EC50 (#of APC cells), NFAT-luciferase [2]: 24000 APC cells
Max Fold (RLU), NFAT-luciferase [2]: 28.6 fold
